The target in test [1] is NKG2D ligands (NKG2DL) on tumor cell lines. As to the kind of experiment: cell-based or functional assay.
The target of the next test is ULBP2-Fc (UniProt Q9BZM5). As to the kind of experiment: cell-based or functional assay.
Chain of UniProt Q9BZM5 (Q9BZM5 26-217 limits assumed): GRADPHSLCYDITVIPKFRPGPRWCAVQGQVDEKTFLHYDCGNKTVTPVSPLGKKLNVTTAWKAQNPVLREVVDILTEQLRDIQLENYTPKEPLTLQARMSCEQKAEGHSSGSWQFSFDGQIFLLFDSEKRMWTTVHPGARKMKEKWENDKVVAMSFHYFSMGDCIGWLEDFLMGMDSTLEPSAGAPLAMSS

On to dimeric NKG2D-CD3ε TFP (receptor), for which the tumor cell lysis, luciferase reporter assay, 24 h co-culture, E:T 1-to-1 in test [1] lay within 30 to 50%. The substance further displayed a proliferation of CFSE-labelled TFP T cells on plate-bound antigen, three-day culture, flow cytometry with ULBP2-Fc of 60 ng/mL.

Consider monomeric NKG2D-CD3ε TFP (receptor), for which the tumor cell lysis, luciferase reporter assay, 24 h co-culture, E:T 5-to-1 in test [1] is 30 to 50%. In the test with ULBP2-Fc, this substance came in with a proliferation of CFSE-labelled TFP T cells on plate-bound antigen, three-day culture, flow cytometry of 250 ng/mL.

Source of the values: patent publication US20190276540A1.
